Measurements as given in the supplement of paper PMC11136658.

Test system: peptide library, one residue held at a place counted from the Y acceptor
Assay: relative phosphorylation of the sub-library (ratio to the mean residue at this position); higher = residue favoured
How it was run: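 Biotinylated Tyr-centred peptide library mixtures, each fixing one residue at one position from −5 to +5, were incubated with purified recombinant kinases in 384-well plates for 90 min with 50 μM ATP plus γ-32P-ATP. Streptavidin membranes captured the peptides, which were rinsed and quantified by phosphorimaging and ImageQuant. At each position, intensities were divided by the sum of the 18 randomized residues (16 for the Ser/Thr-free library) and multiplied by that number. Each value is phosphorylation relative to the mean randomized residue.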

JAK1, construct: aa866-end, human, sequence (P23458 866-1154, looked up): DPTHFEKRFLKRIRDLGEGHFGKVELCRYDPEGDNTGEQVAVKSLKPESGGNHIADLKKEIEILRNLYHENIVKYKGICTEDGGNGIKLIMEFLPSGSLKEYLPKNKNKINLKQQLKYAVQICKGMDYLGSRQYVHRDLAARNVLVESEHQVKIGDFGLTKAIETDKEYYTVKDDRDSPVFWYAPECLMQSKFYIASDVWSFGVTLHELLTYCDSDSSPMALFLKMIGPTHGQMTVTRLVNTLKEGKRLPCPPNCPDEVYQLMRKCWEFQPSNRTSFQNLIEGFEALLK
ITK, construct: aa352-end, human, sequence (Q08881 352-620, looked up): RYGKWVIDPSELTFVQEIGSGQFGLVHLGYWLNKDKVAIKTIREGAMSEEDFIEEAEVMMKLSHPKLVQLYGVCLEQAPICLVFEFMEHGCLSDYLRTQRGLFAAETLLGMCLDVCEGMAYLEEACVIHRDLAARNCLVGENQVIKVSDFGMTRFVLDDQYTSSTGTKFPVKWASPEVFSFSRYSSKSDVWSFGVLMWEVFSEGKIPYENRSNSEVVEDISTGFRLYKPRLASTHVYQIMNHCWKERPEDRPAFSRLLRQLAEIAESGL
IRR, construct: aa945-end, human, sequence (P14616 945-1297, looked up): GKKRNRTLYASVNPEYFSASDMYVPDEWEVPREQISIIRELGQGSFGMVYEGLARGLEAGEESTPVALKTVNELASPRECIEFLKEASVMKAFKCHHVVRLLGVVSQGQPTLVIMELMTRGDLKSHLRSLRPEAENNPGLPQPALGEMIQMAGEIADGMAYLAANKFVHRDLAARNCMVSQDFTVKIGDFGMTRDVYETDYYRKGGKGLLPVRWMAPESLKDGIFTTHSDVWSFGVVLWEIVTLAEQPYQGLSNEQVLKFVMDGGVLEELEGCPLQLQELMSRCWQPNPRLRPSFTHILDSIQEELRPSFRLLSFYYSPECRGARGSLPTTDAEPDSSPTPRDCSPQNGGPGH

IRR, construct: aa945-end, human (from UniProt P14616)
relative phosphorylation
Details	at +1	at +2	at +3	at +4	at +5	at -1	at -2	at -3	at -4	at -5
A fixed	1.2	0.697	0.453	0.79	0.702	0.948	1.06	0.957	0.997	1.03
D fixed	0.718	0.923	0.342	1.35	0.583	2.42	1.56	1.39	1.41	1.13
E fixed	1.07	1.49	0.322	1.26	0.575	1.66	1.53	1.53	1.28	1.03
F fixed	1.4	1.19	1.51	1.06	2.09	0.666	0.685	0.903	0.854	0.904
G fixed	0.637	0.368	0.424	0.931	0.838	0.608	1.14	0.972	1.08	0.998
H fixed	1.85	1.07	1.37	1.24	1.21	1.08	0.901	1.13	1.07	1.09
I fixed	0.849	0.881	1.73	0.828	1.03	0.842	0.63	0.618	0.772	0.87
K fixed	0.399	0.686	0.433	0.906	0.693	0.35	0.977	0.864	1.05	1.28
L fixed	1.19	1.32	1.6	0.807	0.985	0.916	0.705	0.717	0.742	0.825
M fixed	2.18	1.44	2.06	0.975	1.06	0.75	0.803	0.779	0.853	0.84
N fixed	0.618	0.911	0.484	1.14	0.844	2.07	1.37	1.45	1.14	1.13
P fixed	0.423	0.796	0.374	0.892	1.37	1.07	1.24	0.834	0.957	0.978
Q fixed	0.998	1.02	0.546	1.04	0.867	0.911	1.18	1.24	1.19	1.12
R fixed	0.353	0.796	0.665	0.918	1.06	0.386	0.992	1.16	1.05	1.19
S fixed	0.835	0.771	0.509	0.977	0.705	0.856	1.06	1.05	0.847	0.88
T fixed	0.867	0.801	0.741	1.07	0.781	0.945	1.05	0.996	0.876	0.803
V fixed	0.906	0.945	1.43	0.85	0.723	0.757	0.651	0.647	0.776	0.806
W fixed	1.21	1.47	2.26	1.01	1.35	0.576	0.576	0.797	0.781	0.766
pThr fixed	1.57	1.06	0.323	0.922	0.584	1.66	1.23	1.27	1.2	1.07
pTyr fixed	1.06	1.64	0.393	1.12	0.513	2.83	1.35	1.26	0.928	1.02

ITK, construct: aa352-end, human (from UniProt Q08881)
relative phosphorylation
Details	at +1	at +2	at +3	at +4	at +5	at -1	at -2	at -3	at -4	at -5
A fixed	1.81	1.06	0.772	0.857	1.11	0.551	1.01	0.947	1.03	0.997
D fixed	0.732	0.669	0.309	0.622	0.886	0.754	1.41	1.36	1.33	1.21
E fixed	1.51	1.13	0.274	0.821	0.792	0.709	1.51	1.52	1.38	1.08
F fixed	0.572	1.07	1.85	0.763	0.705	1.81	0.627	0.793	0.672	0.935
G fixed	1.08	0.639	0.788	1.26	1.1	0.384	1.43	1.21	1.17	1.13
H fixed	0.606	0.801	2.11	0.96	0.926	0.991	0.812	1.03	1.01	1.13
I fixed	1.51	1.12	0.913	0.996	0.332	2.5	0.548	0.511	0.759	0.718
K fixed	0.337	0.697	0.722	1.34	1.39	0.291	0.703	0.694	0.953	1.06
L fixed	0.606	0.908	0.832	0.771	0.72	2.16	0.969	0.666	0.743	0.757
M fixed	1.17	0.976	1.06	1.04	1.24	1.22	0.645	0.752	0.816	0.896
N fixed	0.361	1.06	0.757	0.846	1.06	0.585	1.33	1.39	1.15	1.24
P fixed	0.172	0.791	0.868	1.08	1.49	0.48	1.43	1.27	1.15	1.07
Q fixed	1.03	0.901	0.885	1.19	1.15	0.648	1.24	1.16	1.39	1.24
R fixed	0.432	0.987	1.41	1.32	1.55	0.308	0.64	0.774	1.05	1.14
S fixed	1.4	1.22	0.997	1.07	1.14	0.489	1.28	1.31	1.05	1.01
T fixed	1.36	1.45	0.767	1.12	1.01	1.19	1.05	1.1	0.807	0.902
V fixed	2.08	1.24	1.04	1.16	0.772	1.57	0.764	0.752	0.84	0.797
W fixed	1.23	1.27	1.65	0.785	0.634	1.36	0.605	0.759	0.706	0.692
pThr fixed	2.18	2.7	0.354	0.462	0.524	1.68	1.08	0.871	1.02	0.887
pTyr fixed	1.11	3.73	0.518	0.754	0.65	1.48	1.02	1.2	1.23	2.07

JAK1, construct: aa866-end, human (from UniProt P23458)
relative phosphorylation
Details	at +1	at +2	at +3	at +4	at +5	at -1	at -2	at -3	at -4	at -5
A fixed	0.719	1.02	0.75	0.954	1.06	1.36	1.03	1.03	1.2	1.05
D fixed	0.171	0.329	0.239	0.618	0.655	0.907	0.905	0.919	0.963	0.916
E fixed	0.237	0.402	0.195	0.79	0.649	1.08	0.81	0.891	1.02	0.871
F fixed	2.15	0.807	1.02	1.08	1.09	1.11	0.81	1.1	1.23	1.03
G fixed	0.385	0.788	0.879	1.19	1.19	1.44	1.21	1.11	1.19	1.16
H fixed	0.87	0.545	0.714	1.05	0.906	0.847	0.915	0.905	0.788	0.931
I fixed	2.1	0.695	2.37	0.834	0.784	1.24	0.941	0.795	0.861	1.04
K fixed	0.286	1.88	0.713	1.25	1.16	0.364	0.824	0.732	0.851	1.01
L fixed	2.04	0.871	2.13	0.875	0.886	1.24	1.04	1.15	1.12	1.09
M fixed	2.06	0.911	1.35	1.11	0.897	1.17	1.03	1.09	0.983	1.07
N fixed	0.289	1.04	0.752	0.882	0.923	0.749	1.05	1.02	0.784	0.914
P fixed	0.371	1.55	0.755	0.89	1.41	1.63	1.13	1.41	1.33	1.24
Q fixed	0.699	0.893	0.494	1.03	0.852	0.661	1.06	0.845	1.09	0.953
R fixed	0.509	2.13	0.985	1.45	1.33	0.414	1.02	0.851	0.929	0.911
S fixed	0.534	1.43	0.836	1.16	1.21	0.813	1.33	1.13	0.844	0.904
T fixed	0.812	1.09	1.2	0.956	1.19	0.865	1.05	0.983	0.678	0.805
V fixed	1.8	0.832	1.67	0.887	0.838	1.35	0.931	0.957	0.922	0.953
W fixed	1.96	0.781	0.953	0.988	0.971	0.756	0.89	1.08	1.22	1.14
pThr fixed	0.349	0.342	0.188	0.413	0.485	0.849	0.695	0.704	0.872	0.823
pTyr fixed	0.608	0.384	0.271	0.735	0.608	2.64	0.751	0.934	0.929	0.925
